T1: Source 2 VEGF-D, purified recombinant human VEGF-D monomer (R&D Systems, Catalog Number 622-VD/CF) (human, UniProt O43915 93-201)
T1 construct: Bought protein; Whole entry named; also called Source 2 VEGF-D Monomer
T1 sequence: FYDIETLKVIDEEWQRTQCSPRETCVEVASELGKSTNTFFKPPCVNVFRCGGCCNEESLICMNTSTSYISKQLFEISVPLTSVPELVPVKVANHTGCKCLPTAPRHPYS

T2: Source 1 VEGF-D, mature dimeric recombinant human VEGF-D (CSIRO) (human, UniProt O43915 89-205)
T2 sequence: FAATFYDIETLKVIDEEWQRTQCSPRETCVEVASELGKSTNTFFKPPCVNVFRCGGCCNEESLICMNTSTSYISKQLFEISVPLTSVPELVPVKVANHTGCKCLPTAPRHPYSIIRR


What was measured:
[1] = molecular target: T1, Source 2 VEGF-D, purified recombinant …; assay: SPR, IgG captured by anti-human IgG (Fc), Source 2 VEGF-D monomer as analyte
[2] = molecular target: T2, Source 1 VEGF-D, mature dimeric …; assay: cell-based or functional assay
[3] = molecular target: T1, Source 2 VEGF-D, purified recombinant …; assay: cell-based or functional assay
[4] = molecular target: T1, Source 2 VEGF-D, purified recombinant …; assay: SPR, KD against that of Ig-1A
[5] = molecular target: T2, Source 1 VEGF-D, mature dimeric …; assay: SPR Protocol B: VEGF-D dimer amine-coupled, IgG as analyte
Procedure: (§1) Protocol B: In the second assay format, Protocol B, the orientation of the IgGs and the VEGF-D antigen was reversed relative to Protocol A. The Source 1 VEGF-D dimer was immobilized directly on the chip surface by amine coupling and the murine anti-VEGF-D monoclonal antibody, Ig-1A or IgG variants flowed over this surface as analytes at concentrations of 4 nM, 1.33 nM, and 0.44 nM. This protocol allowed avidity effects to be controlled by reducing the density of dimeric VEGF-D immobilized on the chip and in effect reduce the bivalent binding properties of the system being analyzed.
(§2) All four flow cells on a CM5 chip were activated for 7 min at 25° C. using a mixture of NHS.EDC. Flow cell one was used as an unmodified (activated and blocked) reference against flow cells 2-4. Source 1 VEGF-D dimer was diluted to 1-3 μg/ml into 10 mM sodium acetate, pH 4, and injected over three surfaces for different lengths of time to achieve low ligand densities of 10, 15 and 20 RU to minimize avidity effects of the IgG. All surfaces were blocked for 7 min with ethanolamine (1M, pH 8.2) and pre-conditioned using five 10 s injections of 100 mM H₃PO₄; 1M NaCl. Immobilization steps were carried out at a flow rate of 30 μl/min using HBS-N running buffer.
(§3) All IgG binding experiments were performed at 25° C. using HBS-EP+ running buffer. Analytes (murine reference anti-VEGF-D monoclonal antibody and humanized variants) were injected for 200 s at a flow rate of 70 μl/min and dissociation monitored for 250 s. The antigen surfaces were regenerated with a 10 s pulse of 100 mM H₃PO₄; 1M NaCl. Analyte concentrations used for murine and humanized variants were 4 nM, 1.33 nM, and 0.44 nM. Data was processed using the reference surface and double referencing from blank injections. Binding constants for the IgG/antigen interactions were determined from the three antigen surfaces globally fitted to a 1:1 interaction model. Refractive index parameter was constant (RI=0).

[6] = molecular target: T2, Source 1 VEGF-D, mature dimeric …; assay: SPR Protocol A: IgG captured by anti-human Fc, VEGF-D dimer as analyte
Procedure: (§4) Protocol A: The first assay format, Protocol A, used an assay system where IgGs were captured on a biosensor chip surface using an anti-human IgG (Fc) antibody and the Source 1 VEGF-D dimer run over the chip as the analyte in solution. This ensured that all IgG molecules were presented to the antigen in an active orientation.
(§5) The SPR protocol was slightly modified to compensate for the dimeric nature of the VEGF-D. Ig-1A or IgG variants were analyzed using an anti-human capture kit as described for Anti-human IgG (Fc) capture above, except that 1000 RU of the IgG or IgG variant was captured on the anti-human chip surface. […] The kinetics generated using this approach are accurate within the experimental parameters set. This standard assay protocol is best suited to studying 1:1 interactions and thus, may not be ideal for analyzing binding between the IgG variants and the VEGF-D dimer. In light of this, Protocol B was also used.

[7] = molecular target: T2, Source 1 VEGF-D, mature dimeric …; assay: SPR Protocol B, KD against that of Ig-1A
Procedure: as §1, §2, §3

[8] = molecular target: T2, Source 1 VEGF-D, mature dimeric …; assay: SPR Protocol A, KD against that of Ig-1A
Procedure: as §4, §5

Binder | Kd [1] | koff [1] | rank in the VEGFR-3-Ba/F3 bioassay [2] | rank in the VEGFR-3-Ba/F3 bioassay [3] | Fold-improvement with respect to Ig-1A [4] | Kd [5] | koff [5] | kon [5] | Kd [6] | koff [6] | kon [6] | Fold-improvement with respect to Ig-1A [7] | Fold-improvement with respect to Ig-1A [8] | kon [1]
humanized IgG antibody derived from clone F61 (antibody, V domains shown, IgG) VH: QVQLVQSGAEVKQPGASVKVSCKASGYTFTGYNMYWVRQAPGQGLEWMGYIDPYNGDTTYNQKFKGRVTMTTDTSTSTAYMKLRSLRSDDTAVYYCARTSYYGGMDYWGRGTLVTVAS VL: DIVMTQTPLSSPVTLGQPASISCRSSQSLVHSNGNTYLHWLQQRPGQPPRLLIYKVSNRFSGVPDRFSGSGAGTDFTLKISRVEAEDVGVYYCSQSTHVPRTFGQGTKLEIKR | 5000 pM | 0.00824 s⁻¹ | 5 rank | 8 rank | 1.8 fold |  |  |  |  |  |  |  |  | 
humanized IgG antibody derived from clone A63 (antibody, V domains shown, IgG) VH: QVQLVQSGAKVKQPGASVKASCKASGYTFTGYNMYWVRQAPGQGLEWMGYIDPYNGDTTYNQKFKGRVTMTTDTSTSTAYMELRSLRSDDTAVYYCARTSYYGGMDYWGRGTLVTVAS VL: DIVMTQTPLSSPVTLGQPASISCRSSQSLVHSNGNTYLHWLQQRPGQPPRLLIYKVSNRFSGVPDRFSGSGAGTDFTLKISRVEAEDVGVYYCSQSTHVPRTFGQGTKLEIKR | 7000 pM | 0.00677 s⁻¹ |  |  | 1.3 fold |  |  |  |  |  |  |  |  | 970000 M⁻¹ s⁻¹
humanized IgG antibody derived from clone AW61 (antibody, V domains shown, IgG) VH: QVQLVQSGAEVKQPGASVKVSCKASGYTFTGYNMYWVRQAPGQGLEWMGYIDPYNGDTTYNQKFKGRATMTTDTSTSTAYMKLRSLRSDDTAVYYCARTSYYGGMDYWGRGTLVTVAS VL: DIVMTQTPLSSPVTLGQPASISCRSSQSLVHSNGNTYLHWLQQRPGQPPRLLIYKVSNRFSGVPDRFSGSGAGTDFTLKISRVEAEDVGVYYCSQSTHVPRTFGQGTKLEIKR | 4100 pM | 0.00725 s⁻¹ | 6 rank | 4 rank | 2.2 fold |  |  |  |  |  |  |  |  | 

Second part, the binder after the results:

Kd [1] | koff [1] | rank in the VEGFR-3-Ba/F3 bioassay [2] | rank in the VEGFR-3-Ba/F3 bioassay [3] | Fold-improvement with respect to Ig-1A [4] | Kd [5] | koff [5] | kon [5] | Kd [6] | koff [6] | kon [6] | Fold-improvement with respect to Ig-1A [7] | Fold-improvement with respect to Ig-1A [8] | kon [1] | Binder
 |  | 4 rank | 7 rank |  | 320 pM | 0.0018 s⁻¹ | 5.4e+06 M⁻¹ s⁻¹ | 342 pM | ~0.00018 s⁻¹ | 510000 M⁻¹ s⁻¹ | 5.5 fold | 2 fold |  | humanized IgG antibody derived from clone HW78 (antibody, V domains shown, IgG) VH: QVQLVQSGAEVKQPGASVKVSCKARGYTFTGYNMYWVRQAPGQGLEWMGYIDPYNGDTTYNQKFKGRVTMTTDTSTGTAYMKLRSLRSDDTAVYYCARTSYYGGMDYWGRGTLVTVAS VL: DIVMTQTPLSSPVTLGQPASISCRSSQSLVHSNGNTYLHWLQQRPGQPPRLLIYKVSNRFSGVPDRFSGSGAGTDFTLKISRVEAEDVGVYYCSQSTHVPRTFGQGTKLEIKR
 |  | 3 rank | 3 rank |  | 330 pM | 0.001 s⁻¹ | 3e+06 M⁻¹ s⁻¹ | 201 pM | 7.7e-05 s⁻¹ | 390000 M⁻¹ s⁻¹ | 5.3 fold | 3.5 fold |  | humanized IgG antibody derived from clone HH69 (antibody, V domains shown, IgG) VH: QVQLVQSGAKVKQPGASVKASCKASGYTFTGYNMYWVRQAPGQGLEWMGYIDPYSGDTTYNQKFKGRVTMTTDTSTSTAYMELRSLRSDDTAVYYCARTSYYGGMDYWGRGTLVTVAS VL: DIVMTQTPLSGPVTLGQPASISCRSSQSLVHSNGNTYLHWLQQRPGQPPRLLIYKVSNRFSGVPDRFSGSGAGTDFTLKISRVEAEDVGVYYCSQSTHVPRTFGRGTKLEIKR
 |  | 8 rank | 6 rank |  | 360 pM | 0.0017 s⁻¹ | 4.7e+06 M⁻¹ s⁻¹ | 364 pM | 0.00019 s⁻¹ | 530000 M⁻¹ s⁻¹ | 4.9 fold | 1.9 fold |  | humanized IgG antibody derived from clone HH41 (antibody, V domains shown, IgG; also called HH41#1; HH41#2) VH: QVQLVQSGAEVKQPGASVKVSCKASGYTFTGYNMYWVRQAPGQGLEWMGYIDPYNGDTTYNQKFKGRVTMTTDTSTSTAYMKLRSLRSDDTAVYYCARTSYYGGMDYWGRGTLVTVAS VL: DIVMTQTPLSSPVTLGQPASISCRSSQSLVHGNGNTYLHWLQQRPGQPPRLLIYKVSNRFSGVPDRFSGSGAGTDFTLKISRVEAEDVGVYYCSQSTHVPRTFGQGTKLEIKR

Source: US20120093811A1 (published 2012)
